How the values were obtained:
endogenous REST protein = assay: Western blot of endogenous REST protein levels in transfected E12.5 neurospheres; assay type: cell-based; conditions: E12.5 mouse cortical neurospheres after transfection; MG132 4 h; compared to control peptides
Description: FIG. 7B is an image of a Western blot showing endogenous REST protein levels in E12.5 neurospheres after transfection. Lane 1, empty vector; lane 2, control (595-694) peptide; lane 3, REST(810-910) S861/864A peptide; lane 4, REST(810-910) WT peptide; lane 5, empty vector with MG132 treated for 4 h. The blot was probed with anti-mouse-REST antibody and anti-tubulin (loading control) antibodies.
There is a significant difference between REST (810-910) compared to control (595-694) peptide (n=5, p=0.0021) and REST(810-910) compared to S861/864A REST(810-910) (n=5, p=0.046). The difference between MG132 and REST(810-910) is not significant (n=5, p=0.7996, Sidak's multiple comparison test, error bars represent 95% confidence interval).
The Examples above used the REST (810-910) reporter as a surrogate substrate for signaling molecules that target S861/S864 on full-length REST. […]
Whole cell lysates were prepared and immunoprecipitated following the procedures in Ballas N et al, 2001 supra and Nesti E et al, Mol Biol Cell 15, 4073-4088 (2004); incorporated by reference herein. Western blots were performed by standard procedures using antibodies described below and analyzed using anti IgG conjugated to infrared dyes (ThermoFisher) on an Odyssey® infrared fluorescence imager (LiCor). […] Infrared fluorescence was detected on the Odyssey® imager (LiCor) in the 700 nm channel. […]

E12.5 neurospheres = assay: Neuronal differentiation of E12.5 neurospheres (MAP2 immunostaining); assay type: cell-based, mouse; conditions: neurospheres differentiated 10 d, versus control (595-694) peptide, p<0.0001
Description: FIG. 8A is a photomicrograph of representative immuno-labeled E12.5 neurospheres transfected with REST (810-910)- or control peptide-IRES-GFP, sorted, and then allowed to differentiate for 10 d in culture. White, DAPI nuclei; Red, MAP2 antibody.
Results are from three different transfections. Fields were selected from multiple places on the cover slip, number of cells indicated on bars (p<0.0001, unpaired t test).
Previous studies indicate that persistent REST expression in progenitors inhibits neuronal differentiation. Therefore, it was assessed whether stabilization of REST, via expression of the unmutated REST (810-910) peptide in neural progenitors, would also hinder neuronal differentiation. Mouse neurosphere cultures were immunostained for Microtubule Associated […] 2 (MAP2), a marker of mature neurons, at days 0 and 10 post-transfection. On day 0 there was negligible MAP2 signal and no significant difference between the two conditions.
HEK293T cells were transfected using Lipofectamine 2000 (Life Technologies) following the manufacturer's instructions. PC12 tet, PC12 tet-on FLAG-REST, and HEK293T cell lines were maintained as described in Ballas N et al 2001 supra. […]

neural progenitor cells = assay: Cortical neuronal migration after in utero electroporation in rat embryos; assay type: in vivo; conditions: cDNA electroporated in utero at E16, harvested E18, 6 embryos, 18 cortical slices
Description: REST protein lacking S861/864 (negative control) and wild-type REST (810-910) peptide (experimental) were expressed in the lateral ventrical of the cortex of rat embryos (E16) by injection and in utero electroporation of the respective cDNA into neural stem cells. The embryos were then allowed to gestate for 48 hours (E18) prior to harvesting. Panel 1 and 2 are representative E18 cortical brain slices expressing REST protein lacking S861/864 (negative control) and wild-type REST protein (experimental).
FIG. 11B is a plot showing that the effect of wild type REST (810-910) peptide on neuronal migration is quantitative. […] No significant difference in neural stem cell migration between the control REST protein lacking S861/864 (negative control) and the wild-type REST (810-910) peptide (experimental) in the SVZ and the intermediate zone (IZ) (Boxes 1 and 2). […] Error bars represent standard deviation, (**P<0.001, *P<0.01 unpaired t test).

B1: REST (810-910) peptide: peptide encoding amino acids 810-to-910 of REST with unmutated S861/S864, expressed from cDNA (protein)
chain: ISKKPPLRKDKKEKSNMQSERARKEQVLIEVGLVPVKDSWLLKESVSTEDLAPPAPPLPKENLREEASGDQKLLNTGEGNKEAPLQKVGAEEADESLPGLA
For B1, the “Endogenous full-length REST protein levels” value (endogenous REST protein) was “significantly stabilized endogenous full-length REST protein”, the MAP2-positive cells (E12.5 neurospheres) was “fewer MAP2-positive cells” and the “Migration of neural progenitor cells from the SVZ toward the cortical plate (CP)” value (neural progenitor cells) was “significantly less migration to the CP”.
